Article PMC2903362 (The Journal of Biological Chemistry, 2010)
Numbering of substitutions follows the chain as printed. Numbers in names are those of the source.

Assays:
[1] = molecular target: T1, FlK (fluoroacetyl-CoA thioesterase; WtFlK) (Streptantibioticus cattleyicolor, UniProt Q1EMV2); assay: X-ray crystal structure of complex; assay type: binding; settings: 10 mM FAcCPan, 100 mM CHES pH 9.5, 0.8 M trisodium citrate; active site
T1 sequence (Q1EMV2 1-139): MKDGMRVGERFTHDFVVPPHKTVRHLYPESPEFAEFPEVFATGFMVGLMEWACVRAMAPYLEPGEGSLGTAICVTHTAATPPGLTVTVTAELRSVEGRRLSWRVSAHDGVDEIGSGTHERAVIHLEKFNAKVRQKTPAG

[2] = molecular target: the molecule itself; assay: crystal structure
[3] = molecular target: the molecule itself; assay: SEC
[4] = molecular target: the molecule itself; assay: crystal structure; remark: listed apart in the source

Molecule: CC(C)(CO)[C@@H](O)C(=O)NCCC(=O)NCCCC(=O)CF [FAcCPan]
- X-ray crystal structure of complex [1]: WtFlK in complex with two analogues of fluoroacetyl-pantetheine, FAcCPan, and FAcOPan

B1: wild-type FlK (fluoroacetyl-CoA thioesterase FlK) (enzyme, Streptomyces cattleya)
chain: T1 sequence (Q1EMV2 1-139)
- stoichiometry N [2]: 4
- stoichiometry N [3]: 2

B2: selenomethionine-labelled wild-type FlK (enzyme, Streptomyces cattleya)
chain: T1 sequence (Q1EMV2 1-139)
modifications: L-selenomethionine incorporated
- stoichiometry N [4]: 2

B3: FlK T42S mutant (enzyme, Streptomyces cattleya)
chain: T1 sequence (Q1EMV2 1-139) with T42S
- stoichiometry N [3]: 2
- stoichiometry N [4]: 4

B4: FlK E50A mutant (enzyme, Streptomyces cattleya)
chain: T1 sequence (Q1EMV2 1-139) with E50A
- stoichiometry N [3]: 2

B5: FlK T42A mutant (enzyme, Streptomyces cattleya)
chain: T1 sequence (Q1EMV2 1-139) with T42A
- stoichiometry N [3]: 2
- stoichiometry N [4]: 4
